Numbering of substitutions follows the chain as printed.
How the values were obtained:
Assay in all cases: SPR, KD relative to WT C2;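 note: biacore SPR at 37 °C, anti-C2 mAbs captured via immobilised goat anti-human IgG, C2 alanine or serine surface mutants as analytes, 1:1 model fitted, double-referenced sensograms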
human C2 G707A = molecular target: T1, human C2 G707A (human, UniProt P06681 21-752)
T1 sequence: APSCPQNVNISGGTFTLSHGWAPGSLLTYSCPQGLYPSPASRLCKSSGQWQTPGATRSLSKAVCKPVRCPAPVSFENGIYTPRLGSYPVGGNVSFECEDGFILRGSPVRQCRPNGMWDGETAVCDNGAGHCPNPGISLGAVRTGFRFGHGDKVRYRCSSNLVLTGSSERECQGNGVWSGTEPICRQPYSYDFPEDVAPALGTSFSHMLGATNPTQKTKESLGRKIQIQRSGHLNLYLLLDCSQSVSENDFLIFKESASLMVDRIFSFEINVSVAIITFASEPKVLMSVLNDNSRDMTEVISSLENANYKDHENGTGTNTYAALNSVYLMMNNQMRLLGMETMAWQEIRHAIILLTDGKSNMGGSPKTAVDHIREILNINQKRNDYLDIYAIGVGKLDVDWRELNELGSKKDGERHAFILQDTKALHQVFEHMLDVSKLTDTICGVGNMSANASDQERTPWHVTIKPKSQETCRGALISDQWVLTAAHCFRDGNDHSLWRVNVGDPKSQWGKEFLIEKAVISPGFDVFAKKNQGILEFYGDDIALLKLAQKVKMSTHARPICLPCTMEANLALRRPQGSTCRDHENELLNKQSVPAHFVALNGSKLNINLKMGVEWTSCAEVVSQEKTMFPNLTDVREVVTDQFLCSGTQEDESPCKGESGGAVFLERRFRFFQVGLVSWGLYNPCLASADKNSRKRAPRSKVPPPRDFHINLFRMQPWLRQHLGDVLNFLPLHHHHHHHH

human C2 N327A = molecular target: T2, human C2 N327A (human, UniProt P06681 21-752)
T2 sequence: T1 sequence with N307A, A687G

human C2 G432A = molecular target: T3, human C2 G432A (human, UniProt P06681 21-752)
T3 sequence: T1 sequence with G412A, A687G

human C2 S456A = molecular target: T4, human C2 S456A (human, UniProt P06681 21-752)
T4 sequence: T1 sequence with S436A, A687G

B1: RF16-226 (antibody, human IgG4 S228P, lambda)
heavy: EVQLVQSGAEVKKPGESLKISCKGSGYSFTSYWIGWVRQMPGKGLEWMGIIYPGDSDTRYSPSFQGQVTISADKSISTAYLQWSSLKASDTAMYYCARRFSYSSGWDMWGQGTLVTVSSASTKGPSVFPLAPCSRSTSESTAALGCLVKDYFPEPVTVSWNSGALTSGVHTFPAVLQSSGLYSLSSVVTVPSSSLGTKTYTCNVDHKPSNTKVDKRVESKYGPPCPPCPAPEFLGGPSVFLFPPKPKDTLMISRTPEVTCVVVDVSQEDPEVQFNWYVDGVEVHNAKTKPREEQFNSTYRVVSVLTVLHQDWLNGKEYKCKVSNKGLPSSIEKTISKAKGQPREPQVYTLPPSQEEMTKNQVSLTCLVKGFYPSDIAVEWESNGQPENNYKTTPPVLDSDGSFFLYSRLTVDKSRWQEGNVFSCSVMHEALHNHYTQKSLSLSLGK
light: SYELTQPPSVSVSPGQTARITCSGDALTSKYVAWYQQKSGLAPLLVIYEDTRRPSGIPAKFSGSSSGSVATLTISGAHGDDEADYYCYSTDASGHQRVFGGGTKLTVLSQPKAAPSVTLFPPSSEELQANKATLVCLISDFYPGAVTVAWKADGSPVKAGVETTKPSKQSNNKYAASSYLSLTPEQWKSHRSYSCQVTHEGSTVEKTVAPTECS
notes: pH-dependent anti-C2 antibody from a phage display library; also called WT
Question: Which results are given for B1?
Answer: Fold diff (human C2 G707A): 2 fold; Fold diff (human C2 N327A): 7 fold; Fold diff (human C2 G432A): 1 fold; Fold diff (human C2 S456A): 7 fold
